Laboratory results as given in IntAct's records for PubMed 11782428.

B1: Tyrosine-protein kinase Lyn (Homo sapiens), P07948 (parent)
chain: MGCIKSKGKDSLSDDGVDLKTQPVRNTERTIYVRDPTSNKQQRPVPESQLLPGQRFQTKDPEEQGDIVVALYPYDGIHPDDLSFKKGEKMKVLEEHGEWWKAKSLLTKKEGFIPSNYVAKLNTLETEEWFFKDITRKDAERQLLAPGNSAGAFLIRESETLKGSFSLSVRDFDPVHGDVIKHYKIRSLDNGGYYISPRITFPCISDMIKHYQKQADGLCRRLEKACISPKPQKPWDKDAWEIPRESIKLVKRLGAGQFGEVWMGYYNNSTKVAVKTLKPGTMSVQAFLEEANLMKTLQHDKLVRLYAVVTREEPIYIITEYMAKGSLLDFLKSDEGGKVLLPKLIDFSAQIAEGMAYIERKNYIHRDLRAANVLVSESLMCKIADFGLARVIEDNEYTAREGAKFPIKWTAPEAINFGCFTIKSDVWSFGILLYEIVTYGKIPYPGRTNADVMTALSQGYRMPRVENCPDELYDIMKMCWKEKAEERPTFDYLQSVLDDFYTATEGQYQQQP
partner: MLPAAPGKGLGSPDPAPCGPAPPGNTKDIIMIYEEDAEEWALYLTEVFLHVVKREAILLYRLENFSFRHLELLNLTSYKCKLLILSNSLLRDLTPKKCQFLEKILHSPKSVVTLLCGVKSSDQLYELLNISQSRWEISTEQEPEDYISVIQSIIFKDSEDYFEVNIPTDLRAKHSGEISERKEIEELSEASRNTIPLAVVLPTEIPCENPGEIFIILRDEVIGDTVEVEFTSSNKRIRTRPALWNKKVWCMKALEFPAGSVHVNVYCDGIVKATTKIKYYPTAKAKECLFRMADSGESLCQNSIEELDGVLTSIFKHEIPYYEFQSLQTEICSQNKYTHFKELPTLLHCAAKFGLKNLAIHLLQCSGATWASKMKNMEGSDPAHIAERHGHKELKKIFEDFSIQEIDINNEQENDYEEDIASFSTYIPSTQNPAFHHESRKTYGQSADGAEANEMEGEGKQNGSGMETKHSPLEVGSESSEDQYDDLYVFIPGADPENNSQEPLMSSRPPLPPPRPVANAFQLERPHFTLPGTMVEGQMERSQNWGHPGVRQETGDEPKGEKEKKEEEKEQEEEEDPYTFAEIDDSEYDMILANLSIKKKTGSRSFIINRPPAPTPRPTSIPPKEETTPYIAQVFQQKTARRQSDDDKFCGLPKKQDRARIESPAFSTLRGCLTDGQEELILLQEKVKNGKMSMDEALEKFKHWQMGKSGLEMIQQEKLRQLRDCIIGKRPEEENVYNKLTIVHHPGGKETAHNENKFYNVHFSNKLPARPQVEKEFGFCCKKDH

Variants of: B1
Details: with bank1_human BANK1, Q8NDB2

Row | effect of a mutation on the interaction | Variant
1 | with no effect | R156D;S158F
2 | decreasing interaction strength | K275L
3 | with no effect | Y508F
4 | with no effect | P114L
